In assay [1] the target is C-reactive protein (pCRP) (Homo sapiens) (UniProt P02741). As to conditions: cited from earlier work.
The target of assay [2] is T1, C-reactive protein (pentameric, biotin-labeled) (Homo sapiens), P02741.
T1 chain: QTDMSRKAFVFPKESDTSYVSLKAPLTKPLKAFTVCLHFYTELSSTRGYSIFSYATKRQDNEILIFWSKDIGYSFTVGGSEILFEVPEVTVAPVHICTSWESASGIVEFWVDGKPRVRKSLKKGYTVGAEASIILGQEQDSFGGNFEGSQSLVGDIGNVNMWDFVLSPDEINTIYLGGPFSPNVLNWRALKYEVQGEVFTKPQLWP
The experiment in a line: ELISA. As to conditions: pCRP immobilized on hydrophobic surface, biotin-labeled solution pCRP, calcium required; remark: other sources report otherwise.

On to “C-reactive protein (pCRP) (from UniProt P02741)”, for which the equilibrium dissociation constant (Kd) in assay [1] was 20 µM.

B1: C-reactive protein (surface-immobilized intermediate, CRPi), P02741 (protein)
chain: QTDMSRKAFVFPKESDTSYVSLKAPLTKPLKAFTVCLHFYTELSSTRGYSIFSYATKRQDNEILIFWSKDIGYSFTVGGSEILFEVPEVTVAPVHICTSWESASGIVEFWVDGKPRVRKSLKKGYTVGAEASIILGQEQDSFGGNFEGSQSLVGDIGNVNMWDFVLSPDEINTIYLGGPFSPNVLNWRALKYEVQGEVFTKPQLWP
B1: the Kd in assay [2] came out at 0.0015 µM.

The values are drawn from publication PMC5979025.
